The assay has as its target Ktedonobacter racemifer acyl carrier protein (KrACP) (Ktedonobacter racemifer DSM 44963). The assay is described as follows: SDS-PAGE.

Consider “Ktedonobacter racemifer acyl carrier protein (KrACP) (natural protein)”, for which the stoichiometry N (in general, the number of molecules, sites or subunits per partner or assembly) worked out at 2.

Source of the values: doi:10.1101/2020.05.18.102780.
